The values that follow are results of earlier work, collected in patent publication US6153653A, “Choline compositions and uses thereof” (Protarga, Inc., priority 1997, dated 2000).

For the data set the following is noted: relative to native tPA.

B1: C84S tPA: tPA variants in which a cysteine at position 84 of the growth factor domain of native tPA is replaced by serine (protein, UniProt P00750 36-562, looked up, variant C84S)
Tissue-type plasminogen …: SYQVICRDEKTQMIYQQHQSWLRPVLRSNRVEYCWCNSGRAQCHSVPVKSCSEPRCFNGGTCQQALYFSDFVCQCPEGFAGKCSEIDTRATCYEDQGISYRGTWSTAESGAECTNWNSSALAQKPYSGRRPDAIRLGLGNHNYCRNPDRDSKPWCYVFKAGKYSSEFCSTPACSEGNSDCYFGNGSAYRGTHSLTESGASCLPWNSMILIGKVYTAQNPSAQALGLGKHNYCRNPDGDAKPWCHVLKNRRLTWEYCDVPSCSTCGLRQYSQPQFRIKGGLFADIASHPWQAAIFAKHRRSPGERFLCGGILISSCWILSAAHCFQERFPPHHLTVILGRTYRVVPGEEEQKFEVEKYIVHKEFDDDTYDNDIALLQLKSDSSRCAQESSVVRTVCLPPADLQLPDWTECELSGYGKHEALSPFYSERLKEAHVRLYPSSRCTSQHLLNRTVTDNMLCAGDTRSGGPQANLHDACQGDSGGPLVCLNDGRMTLVGIISWGLGCGQKDVPGVYTKVTNYLDWIRDNMRP
With B1, the “functional activity (in words)” value is “retains the functional activity of native tPA”. For the same molecule, the “in vivo half life (in words)” value (in vivo) is recorded as “longer in vivo half life than native tPA”.
